# From the RNAGym collection of RNA variant scans (doi:10.7554/elife.80360)
# B1: Hairpin Ribozyme (parent)
# chain: GUCCUCUUUCACGUGCGCGUGAAAGAGAGAAGUGAACCAGAGAAACACACGUUGUGGUAUAUUACCUGGUA
# Variants of: B1
# Experiment: self-cleavage, relative activity (ratio to wild type); higher = more cleavage; co-transcriptional
row,Variant,self-cleavage
1,GUCCUCUUUCACGUGCGCGUGAAAGAGAGAAGUGAACCACAGAAACGCACGUUGUGGUAUAUUACCUGGUA [G40C A47G],0.0685
2,GUCCUCUUUCACGUGCGCGUGAAAGAGAGAAGUGAACCACAGAAACACCCGUUGUGGUAUAUUACCUGGUA [G40C A49C],0.0764
3,GUCCUCUUUCACGUGCGCGUGAAAGAGAGAAGUGAACCACAGAAACACGCGUUGUGGUAUAUUACCUGGUA [G40C A49G],0.132
4,GUCCUCUUUCACGUGCGCGUGAAAGAGAGAAGUGAACCACAGAAACACUCGUUGUGGUAUAUUACCUGGUA [G40C A49U],0.169
5,GUCCUCUUUCACGUGCGCGUGAAAGAGAGAAGUGAACCACAGAAACACACGUUGUGGUUUAUUACCUGGUA [G40C A59U],0.198
6,GUCCUCUUUCACGUGCGCGUGAAAGAGAGAAGUGAACCACAGAAACACACGUUGUGGUAUUUUACCUGGUA [G40C A61U],0.224
7,GUCCUCUUUCACGUGCGCGUGAAAGAGAGAAGUGAACCACAGAAACACACGUUGUGGUAUAUUACCUGGUC [G40C A71C],0.401
8,GUCCUCUUUCACGUGCGCGUGAAAGAGAGAAGUGAACCACAGAAACACACGUUGUGGUAUAUUACCUGGUG [G40C A71G],0.165
9,GUCCUCUUUCACGUGCGCGUGAAAGAGAGAAGUGAACCACAGAAAGACACGUUGUGGUAUAUUACCUGGUA [G40C C46G],0.21
10,GUCCUCUUUCACGUGCGCGUGAAAGAGAGAAGUGAACCACAGAAACACAUGUUGUGGUAUAUUACCUGGUA [G40C C50U],0.198
11,GUCCUCUUUCACGUGCGCGUGAAAGAGAGAAGUGAACCACAGAAACACACGUUGUGGUAUAUUAACUGGUA [G40C C65A],0.145
12,GUCCUCUUUCACGUGCGCGUGAAAGAGAGAAGUGAACCACAGAAACACACGUUGUGGUAUAUUAGCUGGUA [G40C C65G],0.156
13,GUCCUCUUUCACGUGCGCGUGAAAGAGAGAAGUGAACCACAAAAACACACGUUGUGGUAUAUUACCUGGUA [G40C G42A],0.0581
14,GUCCUCUUUCACGUGCGCGUGAAAGAGAGAAGUGAACCACAUAAACACACGUUGUGGUAUAUUACCUGGUA [G40C G42U],0.191
15,GUCCUCUUUCACGUGCGCGUGAAAGAGAGAAGUGAACCACAGAAACACACAUUGUGGUAUAUUACCUGGUA [G40C G51A],0.115
16,GUCCUCUUUCACGUGCGCGUGAAAGAGAGAAGUGAACCACAGAAACACACGUUGUUGUAUAUUACCUGGUA [G40C G56U],0.152
17,GUCCUCUUUCACGUGCGCGUGAAAGAGAGAAGUGAACCACAGAAACACACGUUGUGAUAUAUUACCUGGUA [G40C G57A],0.111
18,GUCCUCUUUCACGUGCGCGUGAAAGAGAGAAGUGAACCACAGAAACACACGAUGUGGUAUAUUACCUGGUA [G40C U52A],0.209
19,GUCCUCUUUCACGUGCGCGUGAAAGAGAGAAGUGAACCACAGAAACACACGUAGUGGUAUAUUACCUGGUA [G40C U53A],0.235

row,Variant,self-cleavage
1,GUCCUCUUUCACGUGCGCGUGAAAGAGAGAAGUGAACCACAGAAACACACGUUGCGGUAUAUUACCUGGUA [G40C U55C],0.163
2,GUCCUCUUUCACGUGCGCGUGAAAGAGAGAAGUGAACCACAGAAACACACGUUGGGGUAUAUUACCUGGUA [G40C U55G],0.138
3,GUCCUCUUUCACGUGCGCGUGAAAGAGAGAAGUGAACCACAGAAACACACGUUGUGGGAUAUUACCUGGUA [G40C U58G],0.199
4,GUCCUCUUUCACGUGCGCGUGAAAGAGAGAAGUGAACCACAGAAACACACGUUGUGGUACAUUACCUGGUA [G40C U60C],0.135
5,GUCCUCUUUCACGUGCGCGUGAAAGAGAGAAGUGAACCACAGAAACACACGUUGUGGUAUAAUACCUGGUA [G40C U62A],0.116
6,GUCCUCUUUCACGUGCGCGUGAAAGAGAGAAGUGAACCACAGAAACACACGUUGUGGUAUACUACCUGGUA [G40C U62C],0.143
7,GUCCUCUUUCACGUGCGCGUGAAAGAGAGAAGUGAACCACAGAAACACACGUUGUGGUAUAUUACCAGGUA [G40C U67A],0.0737
8,GUCCUCUUUCACGUGCGCGUGAAAGAGAGAAGUGAACCACAGAAACACACGUUGUGGUAUAUUACCUGGAA [G40C U70A],0.143
9,GUCCUCUUUCACGUGCGCGUGAAAGAGAGAAGUGAACCACAGAAACACACGUUGUGGUAUAUUACCUGGCA [G40C U70C],0.13
10,GUCCUCUUUCACGUGCGCGUGAAAGAGAGAAGUGAACCACAGAAACACACGUUGUGGUAUAUUACCUGGGA [G40C U70G],0.131
11,GUCCUCUUUCACGUGCGCGUGAAAGAGAGAAGUGAACCAUUGAAACACACGUUGUGGUAUAUUACCUGGUA [G40U A41U],0.221
12,GUCCUCUUUCACGUGCGCGUGAAAGAGAGAAGUGAACCAUAGCAACACACGUUGUGGUAUAUUACCUGGUA [G40U A43C],0.165
13,GUCCUCUUUCACGUGCGCGUGAAAGAGAGAAGUGAACCAUAGAGACACACGUUGUGGUAUAUUACCUGGUA [G40U A44G],0.161
14,GUCCUCUUUCACGUGCGCGUGAAAGAGAGAAGUGAACCAUAGAACCACACGUUGUGGUAUAUUACCUGGUA [G40U A45C],0.103
15,GUCCUCUUUCACGUGCGCGUGAAAGAGAGAAGUGAACCAUAGAAGCACACGUUGUGGUAUAUUACCUGGUA [G40U A45G],0.132
16,GUCCUCUUUCACGUGCGCGUGAAAGAGAGAAGUGAACCAUAGAAUCACACGUUGUGGUAUAUUACCUGGUA [G40U A45U],0.219
17,GUCCUCUUUCACGUGCGCGUGAAAGAGAGAAGUGAACCAUAGAAACUCACGUUGUGGUAUAUUACCUGGUA [G40U A47U],0.131
18,GUCCUCUUUCACGUGCGCGUGAAAGAGAGAAGUGAACCAUAGAAACACCCGUUGUGGUAUAUUACCUGGUA [G40U A49C],0.118
19,GUCCUCUUUCACGUGCGCGUGAAAGAGAGAAGUGAACCAUAGAAACACUCGUUGUGGUAUAUUACCUGGUA [G40U A49U],0.0847
